Consider 1 molecule from article PMC9399903 (Nature structural & molecular biology, 2022).

Series [1] concerns the target wild-type yeast core particle (CP, 20S proteasome) (S. cerevisiae (endogenous in yeast)) (UniProt P23639).
The series “SEC” deals with the molecule itself. As to the kind of experiment: SEC. (In gel filtration, larger molecules generally elute earlier.)

Sequence of wild-type yeast core particle (CP, 20S proteasome) (S. cerevisiae (endogenous in yeast)) (P23639 whole entry, looked up): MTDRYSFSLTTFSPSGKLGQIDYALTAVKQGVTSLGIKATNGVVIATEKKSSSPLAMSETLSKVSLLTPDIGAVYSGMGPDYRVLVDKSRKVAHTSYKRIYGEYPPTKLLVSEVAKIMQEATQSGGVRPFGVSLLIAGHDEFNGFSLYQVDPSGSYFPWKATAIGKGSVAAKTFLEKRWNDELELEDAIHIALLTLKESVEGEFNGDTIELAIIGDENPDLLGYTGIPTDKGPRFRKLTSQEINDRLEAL

B1: Fub1 (S. cerevisiae PI31), endogenous untagged (natural protein, UniProt P25659 1-250, looked up)
chain: MIENKVELVAELVLESIGKTEVVSRHTEGTKSCQVSFRIKDSPSEKGSTSFLSELVVIQTLDDNDKYTVVIRHGTSITMACVVGYSDFKLPTELKWPLERESLPVEPDLKPIMTQLKRQTAGSADMPKFDDEYQAQARQNQGTAPLNPYPGLTVTEPSFANPAGGYADGDLYPVGTSHPDWSGGLPNPLGNPSSQGGMIFDPNRRPAPRREDMPPGWMPGSKYDEPFGPGSGGFGGSGSGGFGGSGSGFI
B1 registered an inhibition of CP peptidase activity at 2-fold molar excess of Fub1 in series [1] of 50%. Also, the stoichiometry N (in general, a count of units in the complex or per binding partner) in the series “SEC” worked out at 2.
